In patent publication US20240199761A1 (AstraZeneca / MedImmune, published 2024):

How the values were obtained:
[1] = target: T1, PAD2 (species not stated) (Homo sapiens (Human), UniProt Q9Y2J8 1-665, Biotinylated in the specificity ELISA. The SPR material was enzymatically biotinylated on an Avi-tag.); test: specificity ELISA: biotinylated PAD on a streptavidin plate, detection with anti-human IgG Fc HRP, fluorescence (RFU); antibody concentration not given
T1 construct: Biotinylated in the specificity ELISA; also called biotinylated PAD2; not shown: Avi-tag and any purification tag on the recombinant PAD2

[2] = target: T2, PAD4 (species not stated) (Homo sapiens (Human), UniProt Q9UM07 1-663, Biotinylated in the specificity ELISA. The SPR material was enzymatically biotinylated on an Avi-tag.); test: as above
T2 construct: Biotinylated in the specificity ELISA; monomer and dimer forms seen in iSCAT; also called biotinylated PAD4; not shown: Avi-tag and any purification tag on the recombinant PAD4

[3] = target: T3, recombinant human PAD2 (human, UniProt Q9Y2J8 1-665, enzymatically biotinylated on an Avi-tag (when captured on the SPR chip)); test: specificity ELISA: biotinylated PAD on a streptavidin plate, detection with anti-human IgG Fc HRP, Binding (RFU); antibody concentration not given
T3 construct: also called hPAD2; Human PAD2 (RD220)

[4] = target: T4, recombinant human PAD4 (human, UniProt Q9UM07 1-663, enzymatically biotinylated on an Avi-tag (when captured on the SPR chip)); test: as above
T4 construct: also called hPAD4; Human PAD4 (RD223)

[5] = target: T3, recombinant human PAD2; test: SPR (Biacore 8K), N-terminally tagged against C-terminally tagged recombinant PAD2
[6] = target: T5, cynomolgus PAD2, recombinant, tags at the N-terminus (cynomolgus, UniProt G7NUR0 1-665, enzymatically biotinylated on an Avi-tag where captured on streptavidin); test: SPR; biotinylated PAD2 on C1-streptavidin, antibody flowed over
T5 construct: also called Cyno PAD2; not shown: N-terminal tags incl; Avi-tag

[7] = target: T6, human PAD2, recombinant, tags at the N-terminus (human, UniProt Q9Y2J8 1-665, enzymatically biotinylated on an Avi-tag where captured on streptavidin); test: as above
T6 construct: not shown: N-terminal tags incl; Avi-tag

[8] = target: T7, mouse PAD2, recombinant, tags at the N-terminus (mouse, UniProt Q08642 1-673, enzymatically biotinylated on an Avi-tag where captured on streptavidin); test: as above
T7 construct: not shown: N-terminal tags incl; Avi-tag

[9] = target: T5, cynomolgus PAD2, recombinant, tags at …; test: as above; remark: listed apart in the source
[10] = target: T6, human PAD2, recombinant, tags at the …; test: as above; remark: listed apart in the source
[11] = target: T7, mouse PAD2, recombinant, tags at the …; test: as above; remark: listed apart in the source
[12] = target: T8, recombinant mouse PAD2 (mouse, UniProt Q08642 1-673); test: ratio of SPR KDs, mouse PAD2 against human PAD2; biotinylated PAD captured on C1-streptavidin, antibody flowed over
T8 construct: Recombinant and tagged

[13] = target: T9, huFcRn (human, UniProt P55899 24-297; P61769 21-119, limits assumed); test: huFcRn affinity chromatography, pH gradient elution
T9 construct: also called human neonatal Fc receptor

[14] = target: T8, recombinant mouse PAD2; test: ratio of SPR KDs, mouse PAD2 against human PAD2; biotinylated antibody captured on C1-streptavidin, PAD flowed over
[15] = target: T5, cynomolgus PAD2, recombinant, tags at …; test: SPR; biotinylated antibody on C1-streptavidin, PAD2 flowed over
[16] = target: T6, human PAD2, recombinant, tags at the …; test: as above
[17] = target: T7, mouse PAD2, recombinant, tags at the …; test: as above
[18] = target: T5, cynomolgus PAD2, recombinant, tags at …; test: as above; remark: listed apart in the source
[19] = target: T6, human PAD2, recombinant, tags at the …; test: as above; remark: listed apart in the source
[20] = target: T7, mouse PAD2, recombinant, tags at the …; test: as above; remark: listed apart in the source

B1: R347 Bis3 FQQYTE (antibody, human IgG1, lambda)
light chain: ELVLTQPASVSGSPGQSITISCTGTSSDVGGYNYVSWYQQHPGKAPKLMIYDVSKRPSGVSNRFSGSKSGNTASLTISGLQAEDEADYYCSSYTSSSTLVFGGGTKLTVLGQPKAAPSVTLFPPSSEELQANKATLVCLISDFYPGAVTVAWKADSSPVKAGVETTTPSKQSNNKYAASSYLSLTPEQWKSHRSYSCQVTHEGSTVEKTVAPTECS
heavy chain with C-terminal scFv: EVQLLESGGGLVQPGGSLRLSCTTSGFTFNTYAMSWVRQAPGKGLEWLSGINNNGRTAFYADSVKGRFTISRDNSKNTLYLQINSLRADDTAVYFCAKDVRFIAVPGDSWGQGTLVTVSSASTKGPSVFPLAPSSKSTSGGTAALGCLVKDYFPEPVTVSWNSGALTSGVHTFPAVLQSSGLYSLSSVVTVPSSSLGTQTYICNVNHKPSNTKVDKRVEPKSCDKTHTCPPCPAPEFQGGPSVFLFPPKPKDTLYITREPEVTCVVVDVSHEDPEVKFNWYVDGVEVHNAKTKPREEQYNSTYRVVSVLTVLHQDWLNGKEYKCQVSNKALPAPIEKTISKAKGQPREPQVYTLPPSREEMTKNQVSLTCLVKGFYPSDIAVEWESNGQPENNYKTTPPVLDSDGSFFLYSKLTVDKSRWQQGNVFSCSVMHEALHNHYTQKSLSLSPGKGGGGSGGGGSEVQLLESGGGLVQPGGSLRLSCTTSGFTFNTYAMSWVRQAPGKGLEWLSGINNNGRTAFYADSVKGRFTISRDNSKNTLYLQINSLRADDTAVYFCAKDVRFIAVPGDSWGQGTLVTVSSGGGGSGGGGSGGGGSGGGGSELVLTQPASVSGSPGQSITISCTGTSSDVGGYNYVSWYQQHPGKAPKLMIYDVSKRPSGVSNRFSGSKSGNTASLTISGLQAEDEADYYCSSYTSSSTLVFGGGTKLTVL
notes: also called Bis3 control (R347)
binding result [1]: no binding | binding result [2]: no binding | binding result [3]: no binding | binding result [4]: no binding

B2: Clone 22 (141LO0035 hIgG1 pgl-4), anti-PAD2, as Fab (Fab, V domains shown)
VH: not shown
VL: SYVLTQPPSVSVSPGQTASITCSGDKVGDKYVSWYQQKPGQSPVLVIYQDSQRPSGIPERFSGSNSGNTATLTISGTQAMDEADYYCQTWAPDVLLFGSGTKVTVL
notes: also called Clone 22 (Fab); anti-PAD2 Fab
fold higher affinity than in the previous assay (Table 69) [5]: 10 fold

B3: anti-PAD2 Clone 22 (141LO0035 hIgG1 pgl-4), Fab (Fab, V domains shown)
VH: not shown
VL: SYVLTQPPSVSVSPGQTASITCSGDKVGDKYVSWYQQKPGQSPVLVIYQDSQRPSGIPERFSGSNSGNTATLTISGTQAMDEADYYCQTWAPDVLLFGSGTKVTVL
notes: Tested as Fab; also called Clone 22 (Fab)
Kd [6]: 0.0292 nM | koff [6]: 7.03e-05 s⁻¹ | kon [6]: 2.39e+06 M⁻¹ s⁻¹ | Kd [7]: 0.0131 nM | koff [7]: 4.77e-05 s⁻¹ | kon [7]: 3.67e+06 M⁻¹ s⁻¹ | Kd [8]: 0.131 nM | koff [8]: 0.000462 s⁻¹ | kon [8]: 3.59e+06 M⁻¹ s⁻¹ | Kd [9]: 0.0292 nM | Kd [10]: 0.0131 nM | Kd [11]: 0.131 nM

B4: Clone 22 (Fab) (141LO0035 hIgG1 pgl-4) (Fab, V domains shown)
VH: not shown
VL: SYVLTQPPSVSVSPGQTASITCSGDKVGDKYVSWYQQKPGQSPVLVIYQDSQRPSGIPERFSGSNSGNTATLTISGTQAMDEADYYCQTWAPDVLLFGSGTKVTVL
notes: Tested as a Fab; Only the variable domains are tied to Clone 22; also called anti-PAD2 Fab
fold difference in KD, mouse/human [12]: 10 fold

B5: Clone 12 (Bis3, FQQ-YTE; Fab anti-PAD2, scFv anti-PAD4) (bispecific antibody, human IgG1, lambda)
heavy: not shown
light: SYVLTQPPSVSVSPGQTASITCSGDKVGDKYVSWYQQKPGQSPVLVIYQDSQRPSGIPERFSGSNSGNTATLTISGTQAMDEADYYCQTWAPDVLLFGSGTKVTVLGQPKAAPSVTLFPPSSEELQANKATLVCLISDFYPGAVTVAWKADSSPVKAGVETTTPSKQSNNKYAASSYLSLTPEQWKSHRSYSCQVTHEGSTVEKTVAPTECS
notes: Bivalent bispecific IgG-HC-scFv; also called PAD240012; Bis3 = scFv (PAD4)-Fab(PAD2)
HPLC retention [13]: 22.8 min | Relative retention [13]: 0.746 | fold difference in KD, mouse/human [14]: 2.1 fold

B6: Clone 12, Bis3 anti-PAD2 Fab / anti-PAD4 scFv, Fc FQQ-YTE (bispecific antibody, human IgG1, lambda)
heavy: not shown
light: SYVLTQPPSVSVSPGQTASITCSGDKVGDKYVSWYQQKPGQSPVLVIYQDSQRPSGIPERFSGSNSGNTATLTISGTQAMDEADYYCQTWAPDVLLFGSGTKVTVLGQPKAAPSVTLFPPSSEELQANKATLVCLISDFYPGAVTVAWKADSSPVKAGVETTTPSKQSNNKYAASSYLSLTPEQWKSHRSYSCQVTHEGSTVEKTVAPTECS
notes: Bivalent for PAD2 and for PAD4; In the rows marked ^# the antibody was chemically biotinylated; also called PAD240012
Kd [15]: 0.0138 nM | Kd [16]: 6.76 pM | Kd [17]: 0.0142 nM | Kd [18]: 0.0138 nM | koff [18]: 5.74e-05 s⁻¹ | kon [18]: 4.19e+06 M⁻¹ s⁻¹ | Kd [19]: 6.76 pM | koff [19]: 4.05e-05 s⁻¹ | kon [19]: 5.6e+06 M⁻¹ s⁻¹ | Kd [20]: 0.0142 nM | koff [20]: 6.89e-05 s⁻¹ | kon [20]: 4.85e+06 M⁻¹ s⁻¹
